According to US20150118260A1:
Like-named read-outs stand apart in the source and are kept apart here.

Columns and labels:
[1] = molecular target: porcine CD80 on the porcine CD80-expressing B-cell lymphoma cell line LCL13271-5E4 (porcine); test: cell-based or functional assay
[2] = molecular target: porcine CD80 on the porcine CD80-expressing B-cell lymphoma cell line LCL13271-5E4 (porcine); test: flow cytometry on LCL13271-5E4 cells, MFI against concentration of biotinylated fusion toxin, non-linear least-squares fit
[3] = molecular target: porcine CD80 on the porcine CD80-expressing B-cell lymphoma cell line LCL13271-5E4 (porcine)

Row | Substance | protein synthesis inhibition (3H-leucine incorporation) in LCL13271-5E4 cells [1] | Kd [2] | Kd [3]
1 | DT390-pCTLA-4-Gly-6xHis (single glycosylated soluble porcine CTLA-4 fusion toxin) | 0.67 | 17.3 nM | 
2 | DT390-bi-pCTLA-4-Non-N-Gly-6xHis (bi-non-N-glycosylated soluble porcine CTLA-4 fusion toxin) |  |  | 4.7 nM
3 | DT390-pCTLA4-Non-N-Gly-6xHis (single non-N-glycosylated soluble porcine CTLA-4 fusion toxin) | 0.33 |  | 2 nM
